Laboratory results as given in patent US20030021770A1.

Target: mini-MUC1 polypeptide (product of the miMUC1 gene, human DF3/MUC1 with 7 variant tandem repeats) (human) (UniProt P15941)
Assay: flow cytometry, 1 ug/ml DF3 MAb on MC38/MUC1 cells, fluorescein-labeled goat anti-mouse IgG

Chain of UniProt P15941 (P15941 other isoform, or with tags, fused parts or gaps mutant, form in doubt): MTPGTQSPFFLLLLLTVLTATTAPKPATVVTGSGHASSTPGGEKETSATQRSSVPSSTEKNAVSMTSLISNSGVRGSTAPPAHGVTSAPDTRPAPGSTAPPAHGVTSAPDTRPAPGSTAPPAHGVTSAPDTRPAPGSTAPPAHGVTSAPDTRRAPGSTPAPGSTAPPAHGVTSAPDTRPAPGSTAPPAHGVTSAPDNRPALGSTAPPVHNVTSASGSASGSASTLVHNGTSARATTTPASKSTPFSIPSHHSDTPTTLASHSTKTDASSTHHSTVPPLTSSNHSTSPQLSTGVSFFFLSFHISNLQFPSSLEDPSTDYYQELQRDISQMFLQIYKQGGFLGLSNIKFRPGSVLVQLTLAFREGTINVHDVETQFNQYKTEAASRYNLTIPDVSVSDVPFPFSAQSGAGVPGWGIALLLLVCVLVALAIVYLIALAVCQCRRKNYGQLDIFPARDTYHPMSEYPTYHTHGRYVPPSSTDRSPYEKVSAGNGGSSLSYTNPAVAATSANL

DF3 monoclonal antibody (anti-MUC1)
mean fluorescence: 400
percent of cells positive: 87.5%
